Measured values published in publication doi:10.1101/2021.09.16.460650 (bioRxiv, 2021).

Target: the molecule itself
Assay: non-reducing SDS-PAGE with western blot

| Protein | stoichiometry N |
| --- | --- |
| N-terminally arginylated calreticulin (natural protein, human (endogenous in DLD-1), UniProt P27797 18-417, looked up, arginyl group added at the mature (signal sequence removed) NH2-terminus, Glu-18) REPAVYFKEQFLDGDGWTSRWIESKHKSDFGKFVLSSGKFYGDEEKDKGLQTSQDARFYALSASFEPFSNKGQTLVVQFTVKHEQNIDCGGGYVKLFPNSLDQTDMHGDSEYNIMFGPDICGPGTKKVHVIFNYKGKNVLINKDIRCKDDEFTHLYTLIVRPDNTYEVKIDNSQVESGSLEDDWDFLPPKKIKDPDASKPEDWDERAKIDDPTDSKPEDWDKPEHIPDPDAKKPEDWDEEMDGEWEPPVIQNPEYKGEWKPRQIDNPDYKGTWIHPEIDNPEYSPDPSIYAYDNFGVLGLDLWQVKSGTIFDNFLITNDEAYAEEFGNETWGVTKAAEKQMKDKQDEEQRLKEEEEDKKRKEEEEAEDKEDDEDKDEDEEDEEDKEEDEEEDVPGQAKDEL | 2 |
| calreticulin (natural protein, human (endogenous in DLD-1), UniProt P27797 18-417, looked up) EPAVYFKEQFLDGDGWTSRWIESKHKSDFGKFVLSSGKFYGDEEKDKGLQTSQDARFYALSASFEPFSNKGQTLVVQFTVKHEQNIDCGGGYVKLFPNSLDQTDMHGDSEYNIMFGPDICGPGTKKVHVIFNYKGKNVLINKDIRCKDDEFTHLYTLIVRPDNTYEVKIDNSQVESGSLEDDWDFLPPKKIKDPDASKPEDWDERAKIDDPTDSKPEDWDKPEHIPDPDAKKPEDWDEEMDGEWEPPVIQNPEYKGEWKPRQIDNPDYKGTWIHPEIDNPEYSPDPSIYAYDNFGVLGLDLWQVKSGTIFDNFLITNDEAYAEEFGNETWGVTKAAEKQMKDKQDEEQRLKEEEEDKKRKEEEEAEDKEDDEDKDEDEEDEEDKEEDEEEDVPGQAKDEL | 2 |
